Measured values from PMC6614809, “The ATP-dependent chromatin remodelling enzyme Uls1 prevents Topoisomerase II poisoning” (Nucleic Acids Research, 2019).

Molecular target: T1, Full length Top2 (HFP185), purified (budding yeast (S. cerevisiae), UniProt P06786 1-1428)
T1 construct: Topoisomerase II (Top2), yeast, full length; Called a homodimer in the methods; also called Topoisomerase II; yeast Top2
T1 sequence (looked up): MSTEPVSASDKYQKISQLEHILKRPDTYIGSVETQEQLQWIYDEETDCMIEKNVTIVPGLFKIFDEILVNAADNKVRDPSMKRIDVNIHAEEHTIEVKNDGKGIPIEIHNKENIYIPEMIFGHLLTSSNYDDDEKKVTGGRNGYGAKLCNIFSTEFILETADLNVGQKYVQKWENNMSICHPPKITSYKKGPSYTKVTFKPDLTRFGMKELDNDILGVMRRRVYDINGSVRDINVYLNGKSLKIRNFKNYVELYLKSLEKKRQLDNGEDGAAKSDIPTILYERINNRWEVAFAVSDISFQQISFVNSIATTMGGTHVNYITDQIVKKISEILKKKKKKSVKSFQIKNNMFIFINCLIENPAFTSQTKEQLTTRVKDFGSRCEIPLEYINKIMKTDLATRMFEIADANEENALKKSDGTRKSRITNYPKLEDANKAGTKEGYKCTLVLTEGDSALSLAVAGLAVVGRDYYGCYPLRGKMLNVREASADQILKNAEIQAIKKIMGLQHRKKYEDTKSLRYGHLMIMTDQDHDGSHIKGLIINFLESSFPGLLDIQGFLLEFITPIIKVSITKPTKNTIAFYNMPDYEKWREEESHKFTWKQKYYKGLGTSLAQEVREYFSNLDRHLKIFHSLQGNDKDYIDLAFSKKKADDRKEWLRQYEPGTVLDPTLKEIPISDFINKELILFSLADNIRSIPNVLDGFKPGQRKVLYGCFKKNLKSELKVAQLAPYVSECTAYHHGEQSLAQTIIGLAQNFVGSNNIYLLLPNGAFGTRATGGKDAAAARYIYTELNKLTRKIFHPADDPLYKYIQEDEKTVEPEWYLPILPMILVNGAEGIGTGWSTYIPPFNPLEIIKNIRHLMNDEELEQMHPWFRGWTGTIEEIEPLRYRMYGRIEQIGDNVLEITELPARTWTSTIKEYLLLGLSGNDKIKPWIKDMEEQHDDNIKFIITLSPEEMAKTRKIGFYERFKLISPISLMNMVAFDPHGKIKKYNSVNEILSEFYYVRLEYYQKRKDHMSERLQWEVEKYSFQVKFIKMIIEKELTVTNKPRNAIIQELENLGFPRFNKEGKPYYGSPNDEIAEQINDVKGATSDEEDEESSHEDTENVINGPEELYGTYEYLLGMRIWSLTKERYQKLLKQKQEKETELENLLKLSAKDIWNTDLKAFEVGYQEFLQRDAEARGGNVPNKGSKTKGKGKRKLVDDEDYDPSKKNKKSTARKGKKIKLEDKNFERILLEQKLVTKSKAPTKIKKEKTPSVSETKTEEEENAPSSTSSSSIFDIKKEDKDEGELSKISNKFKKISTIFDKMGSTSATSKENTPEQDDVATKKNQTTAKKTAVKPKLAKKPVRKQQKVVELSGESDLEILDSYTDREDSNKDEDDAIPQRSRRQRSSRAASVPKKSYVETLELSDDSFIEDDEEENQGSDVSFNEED
Experiment: pull-down; about 0.1 mg Uls1 fragment (bait) pre-bound to Strep-Tactin superflow beads; 200 ul Top2 (prey, 0.1 mg/ml) added, 1 h at 4 C; Pulldown buffer 25 mM HEPES pH 7.5, 150 mM KCl, 3 mM MgCl2, 5% glycerol, 1 mM DTT, 0.1% NP-40; three washes
Conditions: both partners purified

- binding result: binds
B1: Uls1 fragment 350-655, purified bait (domain or fragment, budding yeast (S. cerevisiae), UniProt Q08562 350-655, looked up)
chain: PSKNMDHTTHNSHDSEQKNSSIIILSDEDESGAGINDIESPLKVSEPNTADALRSSVPEVISLLDLPNIDLNNSVIKEASGSNSIPTSETDAQSSSSSVLQGTIMTEQATQSSQHECNSSLDTLKKNHQKLLKDLNSRESELRNALSCCKTNSEILRRKLSRREKEVSDAEKHWQLLLTSMARGGRTISSTQQILVDEAENQLNKLKEKRQLTKSKLDSINLKMYNYNEQWKSFVHSKNINLQKSLAALERSARDSKASATVNKRNECLAEKEKLDQMLKEGTLSFSTYKQLTGEIQQKLNDLKLG
notes: Tags are inferred from the resins used; also called bait protein; source: E. coli BL21(DE3)RIL, purified (TALON resin)
